{"source": "patent US20220213227A1", "about": "(published 2022)", "key": {"[1]": {"target": "T1, human OX40 on cells (human, UniProt P43489 29-277)", "T1 sequence (looked up)": "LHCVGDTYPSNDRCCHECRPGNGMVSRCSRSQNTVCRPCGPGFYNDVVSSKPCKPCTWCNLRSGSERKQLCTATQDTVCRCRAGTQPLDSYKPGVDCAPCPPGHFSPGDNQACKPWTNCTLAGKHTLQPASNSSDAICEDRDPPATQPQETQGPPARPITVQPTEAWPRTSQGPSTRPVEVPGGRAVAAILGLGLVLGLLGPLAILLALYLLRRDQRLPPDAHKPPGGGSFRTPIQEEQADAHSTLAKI", "assay": "cell-based or functional assay"}, "[2]": {"target": "soluble extracellular region of cynomolgus monkey CD38 antigen fused to a 6-His-tag (cynomolgus monkey, UniProt Q5VAN0 45-301)", "assay": "SPR"}, "[3]": {"target": "T2, soluble extracellular region of human CD38 fused to a 6-His-tag (human, UniProt P28907 43-300)", "T2 construct": "Extracellular region = UniProt P28907 residues 43-300, with a 6-His-tag at the C-terminal end; also called human CD38 protein; human CD38 antigen", "assay": "SPR, antibody captured on protein G chip, equilibrium response vs concentration"}}}
{"binder": "BEAT OX40/CD3 antibody (bispecific antibody, human IgG1, kappa, L234A L235A) heavy: QVTLKESGPALVKPTQTLTLTCSFSGFSLSTSGMGVGWIRQPPGKALEWIAHIWWDDDKYYNTALKTRLTISKDTSKNQVVLTMTNMDPVDTATYYCARIDWDGFAYWGQGTLVTVSSASTKGPSVFPLAPSSKSTSGGTAALGCLVKDYFPEPVTVSWNSGALTSGVHTFPAVLQSSGLYSLSSVVTVPSSSLGTQTYICNVNHKPSNTKVDKKVEPKSCDKTHTCPPCPAPEAAGGPSVFLFPPKPKDTLMISRTPEVTCVVVDVSHEDPEVKFNWYVDGVEVHNAKTKPREEQYNSTYRVVSVLTVLHQDWLNGKEYKCKVSNKALPAPIEKTISKAKGQPREPAVYTLPPSRDELTKNQVKLVCLVTGFYPSDIAVEWESNGQPENNYYTTPPVLDSDGSFSLVSWLNVDKSRWQQGNVFSCSVMHEALHNHYTQKSLSLSPGK light: EIVLTQSPATLSLSPGERATLSCRASSSVSYMHWYQQKPGQAPRPWIYATSNRATGIPARFSGSGSGTDYTLTISSLEPEDFAVYYCQQWSSNPWTFGQGTKVEIKRTVAAPSVFIFPPSDEQLKSGTASVVCLLNNFYPREAKVQWKVDNALQSGNSQESVTEQDSKDSTYSLSSTLTLSKADYEKHKVYACEVTHQGLSSPVTKSFNRGEC EVQLVESGGGLVQPGGSLRLSCAASGYTFTRYTMHWVRQAPGKGLEWIGYINPSRGYTYYADSVKGRFTLSTDKSKNTAYLQMSSLRAEDTAVYYCARYYDDHYCLDYWGQGTLVTVSSGGGGSGGGGSGGGGSGGGASDIQLTQSPSSLSASVGDRVTITCRASSSVSYVAWYQQKPGKAPKRWIYDTSKLYSGVPSRFSGSGSGTDYTLTISSLQPEDFATYYCQQWSSNPPTFGQGTKVEIKGGGGTDKTHTCPPCPAPEAAGGPSVFLFPPKPKDTLMISRTPEVTCVVVDVSHEDPEVQFKWYVDGVEVHNAKTKPREEQYNSTFRVVSVLTVLHQDWLNGKEYKCKVSNKALPAPIEKTISKTKGQPREPEVATFPPSREEMTKNQVTLVCLVTGFYPSDIAVEWESSGQPENNYNTDPPLLESDGSFALSSRLRVDKSRWQQGNIFSCSVMHEALHNRFTQKSLSLSPGK", "values": [{"measurement": "EC50 of T cell redirected killing of stable recombinant CHO[OX40] cells (RDL-MTS)", "setting": "[1]", "value": 0.5, "unit": "nM"}]}
{"binder": "human 767 antibody (antibody, human IgG1, kappa, V domains shown, Human IgG1; also called clone 767 IgG1 antibody) VH: QVQLVESGGGLVQPGGSLRLSCAASGFTFSSYWMSWVRQAPGKGLEWVANIKQDGSEKYYVDSVKGRFTISRDNAKNSLYLQMNSLRAEDTAVYYCAREGRTGYFDYWGQGTLVTVSS VL: QSVLTQPPSASGTPGQRVTISCSGSTSNIGTNYVYWYQQLPGTAPKLLIYRNDQRPSGVPDRFSGSKSGTSASLAISGLRSEDEADYYCAAWDDSRSGVYAFGTGTKVTVLR", "values": [{"measurement": "Kd", "setting": "[2]", "value": "~1200", "unit": "nM"}, {"measurement": "Kd", "setting": "[3]", "value": "~300", "unit": "nM"}]}
